Experiments:
Assay in all cases: holdup assay
Set-up in all cases: key: below the threshold = too weak to quantify, mostly under pKd 3.1 to 4
Conditions in all cases: plain residues with an end cap or a label only (N-terminal biotin on a linker: ado-ado)
PTPN13_1, Q12923 = molecular target: T1, PTPN13_1, Q12923
T1 sequence (Q12923 1088-1188, limits assumed, looked up): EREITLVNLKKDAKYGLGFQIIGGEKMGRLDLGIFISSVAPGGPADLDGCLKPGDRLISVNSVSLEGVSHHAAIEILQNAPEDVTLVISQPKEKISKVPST

APBA2_1, Q99767 = molecular target: T2, APBA2_1, Q99767
T2 sequence (Q99767 563-664, limits assumed, looked up): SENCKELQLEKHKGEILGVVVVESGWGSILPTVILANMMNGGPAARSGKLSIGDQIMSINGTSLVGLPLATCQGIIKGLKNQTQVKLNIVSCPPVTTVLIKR

MAGI1_1, Q96QZ7 = molecular target: MAGI1_1, Q96QZ7
DLG3_3, Q92796 = molecular target: T3, DLG3_3, Q92796
T3 sequence (Q92796 374-475, limits assumed, looked up): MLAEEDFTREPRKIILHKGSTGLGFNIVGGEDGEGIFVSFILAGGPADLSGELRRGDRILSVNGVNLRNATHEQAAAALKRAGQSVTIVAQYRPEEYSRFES

GRIP2_4, Q9C0E4 = molecular target: GRIP2_4, Q9C0E4
PDZRN3_1, Q9UPQ7 = molecular target: T4, PDZRN3_1, Q9UPQ7
T4 sequence (Q9UPQ7 244-349, limits assumed, looked up): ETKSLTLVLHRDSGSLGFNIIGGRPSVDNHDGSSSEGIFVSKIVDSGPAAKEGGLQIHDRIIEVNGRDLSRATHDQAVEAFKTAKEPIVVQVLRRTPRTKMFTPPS

CASK, O14936 = molecular target: CASK, O14936
NHERF2_2, Q15599 = molecular target: NHERF2_2, Q15599
SNTG2, Q9NY99 = molecular target: T5, SNTG2, Q9NY99
T5 sequence (Q9NY99 68-166, limits assumed, looked up): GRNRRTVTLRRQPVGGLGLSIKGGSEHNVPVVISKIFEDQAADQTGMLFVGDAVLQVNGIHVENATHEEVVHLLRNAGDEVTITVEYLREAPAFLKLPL

HTRA2, O43464 = molecular target: HTRA2, O43464
TIAM2, Q8IVF5 = molecular target: T6, TIAM2, Q8IVF5
T6 sequence (Q8IVF5 885-986, limits assumed, looked up): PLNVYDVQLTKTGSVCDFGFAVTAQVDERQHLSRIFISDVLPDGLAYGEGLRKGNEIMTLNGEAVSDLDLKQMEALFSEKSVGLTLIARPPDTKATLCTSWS

LAP2, Q96RT1 = molecular target: LAP2, Q96RT1
FRMPD2_3, Q68DX3 = molecular target: FRMPD2_3, Q68DX3
LNX1_1, Q8TBB1 = molecular target: LNX1_1, Q8TBB1
GORASP1, Q9BQQ3 = molecular target: GORASP1, Q9BQQ3
MPDZ_10, O75970 = molecular target: T7, MPDZ_10, O75970
T7 sequence (O75970 1624-1722, limits assumed, looked up): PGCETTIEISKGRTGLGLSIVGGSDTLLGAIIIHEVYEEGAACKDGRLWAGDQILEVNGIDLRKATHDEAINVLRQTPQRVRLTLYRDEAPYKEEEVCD

TJP1_3, Q07157 = molecular target: TJP1_3, Q07157
GRIP2_5, Q9C0E4 = molecular target: GRIP2_5, Q9C0E4
NHERF3_1, Q5T2W1 = molecular target: T8, NHERF3_1, Q5T2W1
T8 sequence (Q5T2W1 4-100, limits assumed, looked up): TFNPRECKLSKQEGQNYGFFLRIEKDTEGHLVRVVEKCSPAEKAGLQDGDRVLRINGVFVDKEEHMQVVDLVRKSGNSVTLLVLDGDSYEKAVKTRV

Inadl_2, Q8NI35 = molecular target: Inadl_2, Q8NI35
LNX1_2, Q8TBB1 = molecular target: LNX1_2, Q8TBB1
FRMPD2_2, Q68DX3 = molecular target: FRMPD2_2, Q68DX3
PARD3_3, Q8TEW0 = molecular target: PARD3_3, Q8TEW0
APBA1_2, Q02410 = molecular target: T9, APBA1_2, Q02410
T9 sequence (Q02410 742-832, limits assumed, looked up): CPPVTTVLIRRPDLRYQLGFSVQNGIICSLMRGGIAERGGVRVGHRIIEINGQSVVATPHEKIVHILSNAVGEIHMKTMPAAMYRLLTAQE

PARD3B_1, Q8TEW8 = molecular target: T10, PARD3B_1, Q8TEW8
T10 sequence (Q8TEW8 196-299, limits assumed, looked up): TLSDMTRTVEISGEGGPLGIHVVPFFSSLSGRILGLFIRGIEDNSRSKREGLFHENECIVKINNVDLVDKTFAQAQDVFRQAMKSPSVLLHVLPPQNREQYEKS

GRIP2_6, Q9C0E4 = molecular target: GRIP2_6, Q9C0E4
GRIP2_3, Q9C0E4 = molecular target: GRIP2_3, Q9C0E4
GRIP2_3, Q9C0E4, sequence (Q9C0E4 238-339): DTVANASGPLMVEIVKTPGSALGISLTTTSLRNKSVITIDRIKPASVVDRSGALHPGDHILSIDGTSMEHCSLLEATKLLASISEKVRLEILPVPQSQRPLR

GRIP2_6, Q9C0E4, sequence (Q9C0E4 648-740): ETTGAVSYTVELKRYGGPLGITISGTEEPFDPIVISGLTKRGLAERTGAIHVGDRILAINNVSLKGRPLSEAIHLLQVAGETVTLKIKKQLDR
GRIP2_4, Q9C0E4, sequence (Q9C0E4 446-548): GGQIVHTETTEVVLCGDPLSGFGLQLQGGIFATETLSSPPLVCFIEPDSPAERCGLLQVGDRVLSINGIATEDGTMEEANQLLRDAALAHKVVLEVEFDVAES
CASK, O14936, sequence (O14936 487-570): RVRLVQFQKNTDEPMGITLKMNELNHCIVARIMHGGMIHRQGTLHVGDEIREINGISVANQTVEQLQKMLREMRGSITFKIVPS
TJP1_3, Q07157, sequence (Q07157 416-512): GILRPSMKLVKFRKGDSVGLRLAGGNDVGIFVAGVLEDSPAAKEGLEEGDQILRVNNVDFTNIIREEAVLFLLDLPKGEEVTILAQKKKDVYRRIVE
FRMPD2_3, Q68DX3, sequence (Q68DX3 1073-1166): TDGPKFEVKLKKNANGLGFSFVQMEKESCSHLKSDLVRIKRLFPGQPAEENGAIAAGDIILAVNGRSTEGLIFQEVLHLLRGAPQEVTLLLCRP
MAGI1_1, Q96QZ7, sequence (Q96QZ7 1-106): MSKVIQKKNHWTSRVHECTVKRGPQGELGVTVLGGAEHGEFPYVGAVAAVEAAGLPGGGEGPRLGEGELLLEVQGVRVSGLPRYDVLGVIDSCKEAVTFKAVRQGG
LNX1_1, Q8TBB1, sequence (Q8TBB1 261-371): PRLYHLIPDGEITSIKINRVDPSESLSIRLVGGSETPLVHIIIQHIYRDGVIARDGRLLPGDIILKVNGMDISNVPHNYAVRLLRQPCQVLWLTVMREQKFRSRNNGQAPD
NHERF2_2, Q15599, sequence (Q15599 142-238): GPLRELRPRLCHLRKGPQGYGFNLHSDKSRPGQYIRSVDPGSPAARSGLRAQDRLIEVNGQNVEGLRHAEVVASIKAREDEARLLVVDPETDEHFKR
FRMPD2_2, Q68DX3, sequence (Q68DX3 944-1038): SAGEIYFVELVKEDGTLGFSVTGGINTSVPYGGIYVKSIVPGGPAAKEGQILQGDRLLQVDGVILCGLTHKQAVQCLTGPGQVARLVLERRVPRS
LNX1_2, Q8TBB1, sequence (Q8TBB1 371-470): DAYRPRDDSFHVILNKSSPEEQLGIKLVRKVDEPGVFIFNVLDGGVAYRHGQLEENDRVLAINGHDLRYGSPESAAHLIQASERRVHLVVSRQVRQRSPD
Inadl_2, Q8NI35, sequence (Q8NI35 238-335): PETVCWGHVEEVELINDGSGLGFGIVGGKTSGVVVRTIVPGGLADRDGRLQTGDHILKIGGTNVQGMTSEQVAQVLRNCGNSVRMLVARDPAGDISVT
PARD3_3, Q8TEW0, sequence (Q8TEW0 582-685): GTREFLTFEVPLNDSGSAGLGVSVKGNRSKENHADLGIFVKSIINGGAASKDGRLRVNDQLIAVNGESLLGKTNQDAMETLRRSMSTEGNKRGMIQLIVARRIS
LAP2, Q96RT1, sequence (Q96RT1 other isoform, or with tags, fused parts or gaps): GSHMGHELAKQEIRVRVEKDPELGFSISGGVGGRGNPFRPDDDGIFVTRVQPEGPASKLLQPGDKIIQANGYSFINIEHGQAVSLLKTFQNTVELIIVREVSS
GORASP1, Q9BQQ3, sequence (Q9BQQ3 1-208): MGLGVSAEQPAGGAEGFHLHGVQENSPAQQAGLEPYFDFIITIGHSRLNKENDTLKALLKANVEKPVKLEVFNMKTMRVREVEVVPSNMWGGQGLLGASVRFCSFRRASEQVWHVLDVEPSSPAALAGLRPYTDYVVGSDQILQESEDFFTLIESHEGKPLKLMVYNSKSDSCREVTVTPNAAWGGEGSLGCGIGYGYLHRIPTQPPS
HTRA2, O43464, sequence (O43464 355-458): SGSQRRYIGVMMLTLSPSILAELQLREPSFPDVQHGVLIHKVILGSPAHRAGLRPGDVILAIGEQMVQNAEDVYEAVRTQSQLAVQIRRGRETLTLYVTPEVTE
GRIP2_5, Q9C0E4, sequence (Q9C0E4 544-642): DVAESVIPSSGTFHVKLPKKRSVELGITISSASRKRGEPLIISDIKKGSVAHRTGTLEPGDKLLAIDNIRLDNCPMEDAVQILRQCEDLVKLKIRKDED

B1: BANF1, O75531 (peptide)
chain: CLREWCDAFL
pKd (PTPN13_1, Q12923): 3.58 | pKd (APBA2_1, Q99767): below the threshold | pKd (MAGI1_1, Q96QZ7): below the threshold | pKd (DLG3_3, Q92796): below the threshold | pKd (GRIP2_4, Q9C0E4): below the threshold | pKd (PDZRN3_1, Q9UPQ7): below the threshold | pKd (CASK, O14936): 3.52 | pKd (NHERF2_2, Q15599): 4.48 | pKd (SNTG2, Q9NY99): below the threshold | pKd (HTRA2, O43464): 3.91 | pKd (TIAM2, Q8IVF5): 4.05 | pKd (LAP2, Q96RT1): 3.69 | pKd (FRMPD2_3, Q68DX3): below the threshold | pKd (LNX1_1, Q8TBB1): below the threshold | pKd (GORASP1, Q9BQQ3): 3.82 | pKd (MPDZ_10, O75970): below the threshold | pKd (TJP1_3, Q07157): below the threshold | pKd (GRIP2_5, Q9C0E4): below the threshold | pKd (NHERF3_1, Q5T2W1): 4.78 | pKd (Inadl_2, Q8NI35): below the threshold | pKd (LNX1_2, Q8TBB1): below the threshold | pKd (FRMPD2_2, Q68DX3): below the threshold | pKd (PARD3_3, Q8TEW0): 4.43 | pKd (APBA1_2, Q02410): 3.75 | pKd (PARD3B_1, Q8TEW8): 5.18 | pKd (GRIP2_6, Q9C0E4): below the threshold | pKd (GRIP2_3, Q9C0E4): below the threshold

B2: ERBB4, Q15303 (peptide)
chain: PPYRHRNTVV
pKd (PTPN13_1, Q12923): below the threshold | pKd (APBA2_1, Q99767): below the threshold | pKd (MAGI1_1, Q96QZ7): below the threshold | pKd (DLG3_3, Q92796): 4.16 | pKd (GRIP2_4, Q9C0E4): below the threshold | pKd (PDZRN3_1, Q9UPQ7): 3.54 | pKd (CASK, O14936): below the threshold | pKd (NHERF2_2, Q15599): below the threshold | pKd (SNTG2, Q9NY99): 3.89 | pKd (HTRA2, O43464): below the threshold | pKd (TIAM2, Q8IVF5): below the threshold | pKd (LAP2, Q96RT1): below the threshold | pKd (FRMPD2_3, Q68DX3): below the threshold | pKd (LNX1_1, Q8TBB1): 4.23 | pKd (GORASP1, Q9BQQ3): 4.19 | pKd (MPDZ_10, O75970): 3.95 | pKd (TJP1_3, Q07157): below the threshold | pKd (GRIP2_5, Q9C0E4): below the threshold | pKd (NHERF3_1, Q5T2W1): below the threshold | pKd (Inadl_2, Q8NI35): below the threshold | pKd (LNX1_2, Q8TBB1): 3.54 | pKd (FRMPD2_2, Q68DX3): below the threshold | pKd (PARD3_3, Q8TEW0): below the threshold | pKd (APBA1_2, Q02410): 3.53 | pKd (PARD3B_1, Q8TEW8): below the threshold | pKd (GRIP2_6, Q9C0E4): below the threshold | pKd (GRIP2_3, Q9C0E4): below the threshold

B3: GRIN2C, Q14957 (peptide)
chain: RRISSLESEV
pKd (PTPN13_1, Q12923): below the threshold | pKd (APBA2_1, Q99767): below the threshold | pKd (MAGI1_1, Q96QZ7): below the threshold | pKd (DLG3_3, Q92796): 4.11 | pKd (GRIP2_4, Q9C0E4): below the threshold | pKd (PDZRN3_1, Q9UPQ7): 4.24 | pKd (CASK, O14936): below the threshold | pKd (NHERF2_2, Q15599): below the threshold | pKd (SNTG2, Q9NY99): 4.24 | pKd (HTRA2, O43464): below the threshold | pKd (TIAM2, Q8IVF5): 4.13 | pKd (LAP2, Q96RT1): 4.46 | pKd (FRMPD2_3, Q68DX3): below the threshold | pKd (LNX1_1, Q8TBB1): 4.34 | pKd (GORASP1, Q9BQQ3): below the threshold | pKd (MPDZ_10, O75970): below the threshold | pKd (TJP1_3, Q07157): below the threshold | pKd (GRIP2_5, Q9C0E4): below the threshold | pKd (NHERF3_1, Q5T2W1): 3.82 | pKd (Inadl_2, Q8NI35): below the threshold | pKd (LNX1_2, Q8TBB1): below the threshold | pKd (FRMPD2_2, Q68DX3): 3.85 | pKd (PARD3_3, Q8TEW0): below the threshold | pKd (APBA1_2, Q02410): 3.75 | pKd (PARD3B_1, Q8TEW8): below the threshold | pKd (GRIP2_6, Q9C0E4): below the threshold | pKd (GRIP2_3, Q9C0E4): below the threshold

B4: DGKH, Q86XP1 (peptide)
chain: LGRSTPQSEV
pKd (PTPN13_1, Q12923): below the threshold | pKd (APBA2_1, Q99767): below the threshold | pKd (MAGI1_1, Q96QZ7): below the threshold | pKd (DLG3_3, Q92796): below the threshold | pKd (GRIP2_4, Q9C0E4): below the threshold | pKd (PDZRN3_1, Q9UPQ7): below the threshold | pKd (CASK, O14936): below the threshold | pKd (NHERF2_2, Q15599): below the threshold | pKd (SNTG2, Q9NY99): below the threshold | pKd (HTRA2, O43464): below the threshold | pKd (TIAM2, Q8IVF5): below the threshold | pKd (LAP2, Q96RT1): below the threshold | pKd (FRMPD2_3, Q68DX3): below the threshold | pKd (LNX1_1, Q8TBB1): 4.01 | pKd (GORASP1, Q9BQQ3): below the threshold | pKd (MPDZ_10, O75970): below the threshold | pKd (TJP1_3, Q07157): below the threshold | pKd (GRIP2_5, Q9C0E4): below the threshold | pKd (NHERF3_1, Q5T2W1): below the threshold | pKd (Inadl_2, Q8NI35): below the threshold | pKd (LNX1_2, Q8TBB1): below the threshold | pKd (FRMPD2_2, Q68DX3): below the threshold | pKd (PARD3_3, Q8TEW0): below the threshold | pKd (APBA1_2, Q02410): 3.64 | pKd (PARD3B_1, Q8TEW8): below the threshold | pKd (GRIP2_6, Q9C0E4): below the threshold | pKd (GRIP2_3, Q9C0E4): below the threshold

B5: DCAF7, P61962 (peptide)
chain: YNNCLEILRV
pKd (PTPN13_1, Q12923): below the threshold | pKd (APBA2_1, Q99767): below the threshold | pKd (MAGI1_1, Q96QZ7): below the threshold | pKd (DLG3_3, Q92796): below the threshold | pKd (GRIP2_4, Q9C0E4): below the threshold | pKd (PDZRN3_1, Q9UPQ7): below the threshold | pKd (CASK, O14936): below the threshold | pKd (NHERF2_2, Q15599): below the threshold | pKd (SNTG2, Q9NY99): below the threshold | pKd (HTRA2, O43464): 4.66 | pKd (TIAM2, Q8IVF5): 4.04 | pKd (LAP2, Q96RT1): below the threshold | pKd (FRMPD2_3, Q68DX3): below the threshold | pKd (LNX1_1, Q8TBB1): below the threshold | pKd (GORASP1, Q9BQQ3): 4.74 | pKd (MPDZ_10, O75970): below the threshold | pKd (TJP1_3, Q07157): below the threshold | pKd (GRIP2_5, Q9C0E4): below the threshold | pKd (NHERF3_1, Q5T2W1): below the threshold | pKd (Inadl_2, Q8NI35): 3.65 | pKd (LNX1_2, Q8TBB1): 4.1 | pKd (FRMPD2_2, Q68DX3): below the threshold | pKd (PARD3_3, Q8TEW0): 3.97 | pKd (APBA1_2, Q02410): below the threshold | pKd (PARD3B_1, Q8TEW8): 4.01 | pKd (GRIP2_6, Q9C0E4): below the threshold | pKd (GRIP2_3, Q9C0E4): below the threshold

Source: paper PMC9482650, “Quantitative fragmentomics allow affinity mapping of interactomes” (Nature Communications, 2022)
